Test results published in the DeepSol protein solubility set.

Assay: soluble on expression in E. coli; label from the status in PepcDB or PDB records

Question: For “MAHHHHHHMGDKVEYGTSTVKSLGDTCRLVRALQGSTDPRLVSINSLLEGVVKSAQSLVKGTDSQKRFNMEFAEFCGVALMGLPDLEDAVDDLRVQENCANAAVNDQDDFDGISPAIFMREIIGYVVSRNTNVGAQYLEHIGRSAMAKFAGQESSEVTPKRLKSGMNDERHVQSVARKKQRTRPVAGKMGRAPTDDKSGVAATGRVFGVDGDEPKQRYKQSMPKGPPMLSRWVKPWTLLNQRVQGIILEHASNENTRRPPVCNYPPGKRSNITPFDICTAPSGPEMLNLWHARESMTSSSVGHCDPVGVAFDETALDHDSKGSEPSFFPSGDKKVCAFVSSELMANLVRYGVSSLEAPFKGAK”, which “soluble on expression in E. coli” value is on record?
Answer: not soluble

Question: For “MAHHHHHHMGGCLISPSAEMQLEENTTSPFGHRRPIFGLFGAGEVTGGVHGGNRLGGNSLLECVVFGRIAGDRAATILQNNDTYLWGEKWSQLKLRNVMEDENGFMWLHFTFPSSFQVSGLEALQGVVLRSVSGDKSVEVYTPYTLPDDEGVVGIALSPWLTGNGVHWLRTLQPGDTVEMKAAERVERNYMNMLKAPHKVVIATSRGIAPMMQILRATMERPEKDATIHLIYIADRASSIPYREKLKALAEASPERFRCTFVLQHPQPGWSGAVNYLDEIAASVFPDPAVVIFLCGASEETRSIKSSLLDMGHDVATIATVE”, which “soluble on expression in E. coli” value is on record?
Answer: not soluble

Question: With “MAHHHHHHMGGQSSVTTTPEQIPVNGKSLDWGPPPDDIPEEERDNEELVLQTWAFCKAKPSPAQNYRSDVEERKRRQSMLWRKRASFIELDCGEDSFFVSNTYKVIGVADGVGGWRDEGVDASHFANSLMENAKHFSETHRKELNPEVILQSAFDKVLHDKVVKAGSSTACVVALQKDSSGEHYLDVANVGDSGVLVVRNRQVQHRVHEKVHGFNAPFQLAVLPPHLQGRAFSDRVSDATREKIPVQRGDVVITGTDGLFDNRFNISLAADAGWIGHVQGSALERVPLVGLLLGPIFANDKVAYVDPQRVAQRIVQDAYKTSLDESAHTPWASMLRKFGVEDAKGGKVDDITLVLSRVTTREELNATSTW” as the sequence, how does the “soluble on expression in E. coli” value read?
Answer: not soluble

Question: With “MAHHHHHHMGIGWEKLDNWEDVPDAGGKYGPLRGPSLVDLQGHVFAIAEAHCKDGGDCSDVGFTGIASKYLDLIGVADPTEILTADASIFGADLLKEGSEVISARNGITRPTTLVLGDSVYVLPGNYSHTGPQVGGTNERGLLLLKGTLTDEGGRKKIKWNETHVVEPQGRGDSRSLTELVGGGGSGAVLRDGTLVFPMQAKDKDGTSVLLSMRFPNSGNKWELSSETPGKGCRDPTLVKWEEKKDDERLFMMAHCAGDYYDVYRSTPHGVNWYTSGQPITRVWGNSHNRKGTVSGVDPPPQSLRKRS” as the sequence, how does the “soluble on expression in E. coli” value read?
Answer: not soluble

Question: With “MAHHHHHHMGIVGEYEILETLGTGAFSKVKLVRHLPTNVYFVAKIIQKSNQQVETDVRLEISILRRLRHRNIVQLIEILESSNNYYIILEPVLGGDVCSLVLSQEGGLAEDFVANLFFQLVAGLRACHQNGVAHRDLKPENLLLTGEKVLKISDFGLSRLHKQSNFHAEAEEYAHTLTGTLAYVAPEVLDGNYDAFKADIWSIGCILYVMLTGQFPFGPTTDACELGERIKDGRVCEMPKSVSENARELTMWLLSRDPASRPSLDEVATHAFLRQHVPAKNIMALTRSRQAKILAPDPSEFSSAIPEEKQVANS” as the sequence, how does the “soluble on expression in E. coli” value read?
Answer: soluble

Question: Which “soluble on expression in E. coli” value does the source give for “MAHHHHHHMGKLQAPCSPTVCGYPLPYPRSLSHNLFNVIQDTRRKGKTNTEQSELKNEGDPLTLSPIVPKVDTSPATESKGRRREEKPLAHEGQLLKHKLDVWRDLFLASAAQQLAASGHPRSRRDDAGNVFYSNISCYLKEGCIVKSEDTDLRTGPRDHLRVQGAYLSHLAPEAFANLHVTLDGNTFVLRNVQRTSPTIKQISEELCEERGIRLLPTAMQKKVAYLVSQVSTSTKERAGTISGKKGLATSKWKHTNSLQTCKHSLNMELPEVTYRSRVLSTIREGAYGSPFQKGCKM” here?
Answer: not soluble

Question: With “MAHHHHHHMGLYKSIYFVDGGCCAVKFNAITGLKNRTYGEGANFAIPFLETPVVFDIRNKPTEVLTATGSRDLQTVNLAVRVLYQPHVSALPDIYRNVGMEYAETVLPSLVNEIIRAVIAQFNASDLLVKRPEVSNRIGVMLAERAKRFHIDITDVSITQMSFGKEYTSAVEAKQVAQQMAERAKWRVEQAEQEKEGAILLAKGEAEAAKLIGMAVQKNPAFITLRSLEASRTIADLMRQKGSGSFYIDSDTLSLNTQTIGH” as the sequence, how does the “soluble on expression in E. coli” value read?
Answer: not soluble

Question: Which “soluble on expression in E. coli” value does the source give for “MAHHHHHHMGNGASVGENRHSQLFQQGYKSLQEGRYTYAEIYYDQAIERHEGHSFWTRLDDLIEWERRDKAGQKGTDAKQKTAYRDGGQEEAAFPEVRKDSLKEENEVNVEMGEAAGVGGSGKIEIPLDSRLADVVDYLVLRADIAESYMAEGRYEEATPHMDFLSSHTRVMLKFLQIARMTKAEESANSSNPLEGSTADAGADNAGGGNRRAHQGFMMVSDVERDSILDCFEQFLRMHWVSAMANSVFIVSERFKKGKSEKKHKKELDTAVVACAKIQEELYNVAKRRARSLSNSVVLSFLEGIMEELDAESSTTSITNERMGTANGKTRTNTLFEEQNNRSTGNRSANEIDMLTDRDECPIKVHLQMVYDRRSLCREVPAPQQAPTLRYITWIDDEIRRVVPGTNYNLEIQCGMVDEKRKKQLQKRSLKFAAQRNCNYNDRVLLGKSFDEENALLLFPVFLIQADVQFELGAATKGINALDIVDKLSTQLYGVGSLERQSIMRSVMESRKRGGSLFMMFED” here?
Answer: soluble

Question: With “MAHHHHHHMGQDQSRAKACQLGQAETGGTDRSVSAGSASAAPWEAPVSLAGVEGFQVVRLLPDSPAHKAGLIPFFDIVTALDKVLLESEGKAALSFFKSYVANHRDQPVCFTTFNLYSRTYRDVYCVPSDEWGGGGLLGCSIEWTRADACPERCVHVVDVLEGSPAACSTELQANRDYIIGMQTVQETLITLIKSQKDFYCRLEAWHEEQRWALERKQFFPNERVEVPHVLLFLVYNSESNTIEEVEVEMGTNPEAAVGISVATGLLHIIPSVATADLAVGASLPVMSKFASVGHSVVTPTRAQQQEHQLLQDVSLTPAVGAAPQPREQSQESTGSAQPLPSLPLPQEAHARCAVVDSPEVHTMTNPHEPPMNSCPQPCPPRPQLQQQLTEAALYSMPSLASFNVAPPPRHDAAGGTAAAAVEMGQKPFNPFAEEASPDYDVLEGAPLAHEGVMAAEHHLGQHAPTMEQPYSSSYPPLSSQSPPLSGSLPAQMNGSHNPATALPSYSAPPPPPQQLHVTTMPTFSSQRMPPPLQFPVFPGAAAAKRAPA” as the sequence, how does the “soluble on expression in E. coli” value read?
Answer: not soluble

Question: For “MAHHHHHHMGTLEAGQQGPGSMSKLTVVASPLAPEAVGAYSQAIICNGMVYCSGQIGLDRKTGDFAGKTIEEQSKQVMTNLKYVLEEAGSSMDKVVKTTCLLADIKDFGVFNGIYAEAFGNHKPARACFAAAALPKGALVEVECIATL”, which “soluble on expression in E. coli” value is on record?
Answer: soluble

Question: For “MAHHHHHHMGTLEAQTQGPGSMKQPTAVIFDWYNTLIDTSINIDRTTFYQVLDQMGYKNIDLDSIPNSTIPKYLITLLGKRWKEATILYENSLEKSQKSDNFMLNDGAIELLDTLKENNITMAIVSNKNGERLRSEIHHKNLTHYFDSIIGSGDTGTIKPSPEPVLAALTNINIEPSKEVFFIGDSISDIQSAIEAGCLPIKYGSTNIIKDILSFKNFYDIRNFICQLINI”, which “soluble on expression in E. coli” value is on record?
Answer: soluble

Question: For “MAHHHHHHMGTLEAQTQGPGSMNVLVIGSGGREHSMLHHIRKSTLLNKLFIAPGREGMSGLADIIDIDINSTIEVIQVCKKEKIELVVIGPETPLMNGLSDALTEEGILVFGPSKAAARLESSKGFTKELCMRYGIPTAKYGYFVDTNSAYKFIDKHKLPLVVKADGLAQGKGTVICHTHEEAYNAVDAMLVHHKFGEAGCAIIIEEFLEGKEISFFTLVDGSNPVILGVAQDYKTIGDNNKGPNTGGMGSYSKPNIITQEMEHIIIQKIIYPTIKAMFNMNIQFRGLLFAGIIIKKNEPKLLEYNVRFGDPETQSILPRLNSDFLKLLSLTAKGKLGNESVELSKKAALCVVVASRGYPGEYKKNSIINGIENIEKLPNVQLLHAGTRREGNNWVSDSGRVINVVAQGENLASAKHQAYAALDLLDWPDGIYRYDIGSCAL”, which “soluble on expression in E. coli” value is on record?
Answer: soluble

Question: Which “soluble on expression in E. coli” value does the source give for “MAHHHHHHMGVGFQSKKLQNFCHSGAGEMCALENCIPRWGSFPCNAPGLTPVYELSSFENVELPLIFQKSNIGDLLASTSDSVGQLNGFQARHSNTEGIKSQVSYTSVALSTTNRENLFGWVDCAALPLCSSSTAGASILLVTLLTRESRGKSCMCILDDLVCQLSNGPFNWGCGGDCHDLISISLPSEPRNHAACPIILPIAKLSRKEIWLREAAPKMDVETIIYEGDNQQHLVDDVANGTNAGSCAVMEAGCRPETALGPENVKYGDNESVTQCEVTVDITPSTEPSARCLHFSECTTPVSSNRSFMEPIPLSNMESKALRCRKFDGTSYEVLRRRAHSDALSLILKKYSEHLERVSQTSGRRGLDAHC” here?
Answer: soluble

Question: Which “soluble on expression in E. coli” value does the source give for “MAHHHHHHMHLKECPPASSVGWLRPSLTIYMFGSKSLALSSAVFVLDCFTMGRKQRLLSAVVNVPLTLRLMLYFSASYKGEEPRLPPSTCVLGSSQGNNFLLLPGAFAESGCTTFFPGREGLMSELQDELWLQLPSRLLILARLDLANFLFAVVGRLPNSGINLFQQRPPSSLAVLPKRCMGMTLVALTTL” here?
Answer: not soluble

Question: Which “soluble on expression in E. coli” value does the source give for “MAHHHHHHMHRNIHGGTASATIANSALVSPPPHTTIPPLPAGMDPTYYALSLLRRRRLEECIAVSTQYLAVFNEKMRLTSSGTQKQADGVDEPLWFIQTRALITQDWFDELDVDNDGVDEVLLDGEQNISSTAHRPGTSLQRKDAPTGTTIPTGMAQRQGTARPISSRYGYVRPGTQSRNRPGTMSIRPITSRMMRIGTASLQAVPGGPHIDVRKLNLEKYGRTKPIVARILCDFLLHVEHRPRMVLELGAIALEQQPKDWWWMSRMGQAYYRLGLLREAERMFKAALTIQENVADVMRLARVFTKMDQPLKALDLLSEASKKNPMDHHLLLHMARLYDQLQDAEKSCQLYRRVLQLDSSNMESIACIAAYMFYEKKQPEIALRLYRRLLQMGVQTTELWNNLGLCCFYSSQYDIALSCLQRAVAISTEDETLADVWYNIGHIGIGTGDLGLAHRAFKVALGANPRHAEALNNLAVLNLNIGQVDQAMNDLAMAIEVSPEQHEPLYNFALLAFKAGNFEKSYKLLTQALEACPDHPESALLQATLRKSLATL” here?
Answer: not soluble

Question: With “MAHHHHHHMHRSLLRCALPGEPMLESYRSGVLRCLRCHLGAMRPDFPVGSAATEVAALASTATTPLTCSRRAFRQQGAAHPNTPDATEAAELEKDWQALKTYGMIGGFALLCVATLWYGSRQAKQRYFGAEGSARVSVETRGRPALGGPFVLVNTKGEPVSQAEFLGSWAFFYFGFTHCPEICPVELNRMSHVVDAVRAARPQERIAPLFVSCDPRRDSLEAIDEYLSVFHPDFIGLVGTPKQVNDACRSYRIYYSIPTDEDAAQEDYLIDHSIAIFLFDPQGRFVDFFGNRYDEREITEKVLHYMSEYAKDPTWTNW” as the sequence, how does the “soluble on expression in E. coli” value read?
Answer: not soluble

Question: With “MAHHHHHHMHSAIRFSGSSSRSTSSSMEVASAAAEPPLSVSSIPRRRSADRDDALSLLEPAVRLPTSTTSKASALSQSSLRSGSHPSAAVYGDNPGSAHTASSSYTRKGDNGDALLHQPPGNPQTRVPSSFAATVNTRASEASSHSARGRAGSSRRDNLDPAAPQSRTATQPPLTHPGSVFANIPWIPPPPIYGTPLPDSSNMNRHYAYYYDPRGATLRAPFCYPDEVPLRAQEHHSDVSGAEWPKPSDLPLPSVFPMPPHVLPQLSLPAVSAPTAEAAARGMVAAPHAWAIPPPVLYPPPPPPPWWFYGTHPLPLPASSSGSSASSTGSSRHASSSSPVSARSTTRPSRHPSANAARPHAEAAAPSRHGVAVPAGSVETPVAAASRGDAGGGHAAKKPSVASSGSRYAAGHTVGTGRAARRSMGSLSASSATTSPWSATTTTAHSDLPQRVERRVYASSGSGSSEMQRSATGQTVQVAPRRTNVAQCVPPDQLQVYGDDVVQERGYSSVMTRMKHAVSAAEAYLEKMEHLYRRLRSRYEEVVMSPGKVTRYGADITADEGVEEKRHRRTAPAATTRATRGPPEKGLLHPPERPFSRQTHLQPTAPLPHAERPVSPALSAAQPSAVEPSPPLSSSSSATSATSLRRELHLLESQWQRLEELKRHGGGGTTTAVSMPAALSPSTATSTAGEDPFTNRRFLQLIKDRKHLLTSAT” as the sequence, how does the “soluble on expression in E. coli” value read?
Answer: not soluble
